The results in this text go back to publication PMC11582362 (2023).

B1: full length ADAR1 p110, wild type (FLAG-tagged and HA-tagged copies) [human] / itself (parent complex)
chain: MAEIKEKICDYLFNVSDSSALNLAKNIGLTKARDINAVLIDMERQGDVYRQGTTPPIWHLTDKKRERMQIKRNTNSVPETAPAAIPETKRNAEFLTCNIPTSNASNNMVTTEKVENGQEPVIKLENRQEARPEPARLKPPVHYNGPSKAGYVDFENGQWATDDIPDDLNSIRAAPGEFRAIMEMPSFYSHGLPRCSPYKKLTECQLKNPISGLLEYAQFASQTCEFNMIEQSGPPHEPRFKFQVVINGREFPPAEAGSKKVAKQDAAMKAMTILLEEAKAKDSGKSEESSHYSTEKESEKTAESQTPTPSATSFFSGKSPVTTLLECMHKLGNSCEFRLLSKEGPAHEPKFQYCVAVGAQTFPSVSAPSKKVAKQMAAEEAMKALHGEATNSMASDNQPEGMISESLDNLESMMPNKVRKIGELVRYLNTNPVGGLLEYARSHGFAAEFKLVDQSGPPHEPKFVYQAKVGGRWFPAVCAHSKKQGKQEAADAALRVLIGENEKAERMGFTEVTPVTGASLRRTMLLLSRSPEAQPKTLPLTGSTFHDQIAMLSHRCFNTLTNSFQPSLLGRKILAAIIMKKDSEDMGVVVSLGTGNRCVKGDSLSLKGETVNDCHAEIISRRGFIRFLYSELMKYNSQTAKDSIFEPAKGGEKLQIKKTVSFHLYISTAPCGDGALFDKSCSDRAMESTESRHYPVFENPKQGKLRTKVENGEGTIPVESSDIVPTWDGIRLGERLRTMSCSDKILRWNVLGLQGALLTHFLQPIYLKSVTLGYLFSQGHLTRAICCRVTRDGSAFEDGLRHPFIVNHPKVGRVSIYDSKRQSGKTKETSVNWCLADGYDLEILDGTRGTVDGPRNELSRVSKKNIFLLFKKLCSFRYRRDLLRLSYGEAKKAARDYETAKNYFKKGLKDMGYGNWISKPQEEKNFYLCPV

This assay covers variants of B1. In words: co-immunoprecipitation (anti-FLAG IP, anti-HA western blot, bands quantified with ImageJ); HEK293T cells; in the presence of RNases; n = 3; parent: 70; read off a plot. In general terms: Immunoblotting shows a protein as a band on a membrane.
Turning to chain 1 V452A, chain 1 D453Q, chain 1 W473V, chain 1 C478S, the response was about 10%.
